{"source": "paper PMC10804666", "key": {"[1]": {"target": "Biotinylated human serum albumin (Homo sapiens) (UniProt P02768)", "test": "flow cytometry on cells; yeast surface titration at pH 7.4: NbAlb1 displayed on yeast (2 x 10^5 cells per well), ten concentrations of soluble biotinylated SA from 30 pM to 1 μM, 1 h at 4°C, PBS pH 7.4 with 0.01% w/v casein, NeutrAvidin DyLight 650, MFI; three independent experiments"}, "[2]": {"target": "Biotinylated recombinant mouse serum albumin (Mus musculus) (UniProt P07724)", "test": "flow cytometry on cells; yeast surface titration at pH 7.4: NbAlb1 displayed on yeast (2 x 10^5 cells per well), ten concentrations of soluble biotinylated SA from 30 pM to 1 μM, 1 h at 4°C, PBS pH 7.4 with 0.01% w/v casein, NeutrAvidin DyLight 650, MFI; three independent experiments"}}, "note": "pKd: −log10 of the molar value.", "data": [{"substance": "NbAlb1 displayed on the surface of yeast as NbAlb1-(G4S)3-HA-pStalk fusion protein (VHH)", "values": [{"measurement": "pKd", "setting": "[1]", "result": 8.18}, {"measurement": "pKd", "setting": "[2]", "result": 7.26}]}]}
